One may read the Kd as a measure of binding affinity in units of concentration. A high value points to weaker binding. As usually defined, the koff is a measure of how fast the partners let go of each other. Higher therefore signals fast dissociation. By kon is commonly meant a measure of how fast the partners come together. High values mean faster complex formation, low ones slower complex formation.

Read-outs that look alike come from different tables or passages of the source.

For assay [1], the target named is hG7-BM1 (hVH-B1, hVL-B1) (human). Put plainly: SPR; Biacore X100; CD24-GST flowed over immobilized antibody; 1:1 binding model; procedure as in ref. 45. A general note: Surface plasmon resonance follows binding to a sensor surface in real time, without labels.
Chain of hG7-BM1 (hVH-B1, hVL-B1) (human) (heavy, as listed by the source, chain 1 of 2): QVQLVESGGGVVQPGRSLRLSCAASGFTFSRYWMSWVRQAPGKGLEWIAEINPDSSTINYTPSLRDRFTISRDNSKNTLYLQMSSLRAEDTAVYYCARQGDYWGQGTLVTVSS
Chain of hG7-BM1 (hVH-B1, hVL-B1) (human) (light, as listed by the source, chain 2 of 2): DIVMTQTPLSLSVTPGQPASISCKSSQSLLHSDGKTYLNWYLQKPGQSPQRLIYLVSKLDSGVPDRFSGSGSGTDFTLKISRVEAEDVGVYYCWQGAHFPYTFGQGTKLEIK
Assay [2] shares this target. The description is as above. The source holds these as a separate data set.

The molecule SETTTGTSSNSSQSTSNSGLAPNPTNATTKAAG (natural protein) [CD24-GST] registered a Kd in assay [1] of 0.164 nM. In assay [2], the dissociation constant Kd came to 1.64 nM, the koff came out at 0.000764 s⁻¹ and the kon came to 465000 M⁻¹ s⁻¹.

The values above are taken from article PMC5584245.
